The text below walks through data of paper PMC4255277.

For experiment [1], the target named is melanocortin-4 receptor (zebrafish) (zebrafish) (UniProt B0V1P1). The experiment can be described thus: competition binding assay on cells.
The target is the same in experiment [2]. The experiment can be described thus: competition binding assay on cells. The source holds these as a separate data set.

pIC50: −log10 of the molar value. Where two headings read alike, the source gives them in different places.

Sequence of UniProt B0V1P1 (B0V1P1 whole entry): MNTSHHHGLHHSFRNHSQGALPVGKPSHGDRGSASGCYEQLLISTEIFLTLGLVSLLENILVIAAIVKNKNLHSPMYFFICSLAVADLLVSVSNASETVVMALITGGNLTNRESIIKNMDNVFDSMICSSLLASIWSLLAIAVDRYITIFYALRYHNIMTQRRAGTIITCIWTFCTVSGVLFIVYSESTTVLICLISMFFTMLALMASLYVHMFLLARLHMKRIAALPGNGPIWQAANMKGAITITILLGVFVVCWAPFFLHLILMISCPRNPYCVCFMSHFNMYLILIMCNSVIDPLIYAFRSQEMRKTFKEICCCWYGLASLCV

As to “α–melanocyte-stimulating hormone (peptide)”, the negative-log IC50 (pIC50) in experiment [1] was 7.30; in experiment [2], 7.35.

Usually pIC50 stands for the IC50 on a negative log10 scale, so that one unit is a factor of ten. Read a low pIC50 as a high IC50.
